The target in the experiment is SARS-CoV-2 Nucleocapsid (N) protein, wildtype, SUMO1 modified (SARS-CoV-2 | not stated). The experiment in a line: FRET or BRET.

We go through one substance from publication doi:10.1101/2022.05.31.494262.

With “SARS-CoV-2 Nucleocapsid (N) protein, wildtype, SUMO1 modified”, the Kd (usually a measure of binding affinity in units of concentration) turned out to be 460 nM.
